Test results reported in patent publication US20040067231A1 (published 2004).
Positions count from the first letter of the chain named.

B1: antibody having both a humanized H-chain version “a” and a chimeric L-chain (antibody, V domains shown)
VH: QVQLVESGGGVVQPGRSLRLSCAASGFTFSSYGMSWVRQAPGKGLEWVATISSGGSYTYYPDSVKGRFTISRDNSKNTLYLQMNSLRAEDTAVYYCARQTTMTYFAYWGQGTLVTVSS
VL: QLVLTQSSSASFSLGASAKLTCTLSSQHSTYTIEWYQQQPLKPPKYVMDLKQDGSHSTGDGIPDRFSGSSSGADRYLSISNIQPEDEAMYICGVGDTIKEQFVYVFGGGTKVTVLG
notes: H-chain C-region is human Cγ1
B2: mouse FR1,2/human FR3,4 hybrid antibody with L-chain m/hMBC1Ldλ (antibody, V domains shown)
VH: B1 VH
VL: QLVLTQSSSASFSLGASAKLTCTLSSQHSTYTIEWYQQQPLKPPKYVMDLKQDGSHSTGDGIPDRFSGSSSGAERYLTISSLQSEDEADYICGVGDTIKEQFVYVFGGGTKLTVL
notes: H-chain from hMBC1HcDNA/pCOS1 (humanized version a, human Cγ1); L-chain C-region human λ; Expressed in COS-7 cells
B3: humanized #23-57-137-1 antibody having L-chain version “m” (antibody, V domains shown)
VH: B1 VH
VL: QLVLTQSPSASASLGASVKLTCTLSSQHSTYTIEWYQQQPEKGPRYLMDLKQDGSHSTGDGIPDRFSGSSSGAERYLTISSLQSEDEADYYCGVGDTIKEQFVYVFGGGTKLTVLG
notes: Humanized H-chain version a with human Cγ1; L-chain with human λ C-region; also called hMBC1HcDNA/pCOS1 and hMBC1Lmλ/pCOS1
B4: humanized #23-57-137-1 antibody having L-chain version “t” (antibody, V domains shown)
VH: B1 VH
VL: B3 VL with L47V, Y91I
notes: Humanized H-chain version a with human Cγ1; L-chain with human λ C-region; also called hMBC1HcDNA/pCOS1 and hMBC1Ltλ/pCOS1
B5: humanized #23-57-137-1 antibody having L-chain version “q” (antibody, V domains shown)
VH: B1 VH
VL: B3 VL with R45K, Y91I
notes: Humanized H-chain version a with human Cγ1; L-chain with human λ C-region; also called humanized antibody L-chain version “q”; hMBC1HcDNA and hMBC1Lqλ
B6: human FR1/mouse FR2,3,4 hybrid antibody with L-chain hmmMBC1L(λ) (antibody, V domains shown)
VH: B1 VH
VL: B2 VL with S8P, F12A, A18V, E74D, T78S, S81N, L82I, S84P, D89M, L112V
notes: H-chain from hMBC1HcDNA/pCOS1 (humanized version a, human Cγ1); L-chain C-region human λ; Expressed in COS-7 cells; also called FR1/FR2 hybrid antibody
B7: humanized #23-57-137-1 antibody having L-chain version “l” (antibody, V domains shown)
VH: B1 VH
VL: B3 VL with R45K, L47V
notes: Humanized H-chain version a with human Cγ1; L-chain with human λ C-region; also called hMBC1HcDNA/pCOS1 and hMBC1Llλ/pCOS1
B8: mouse FR1,2/human FR3,4 hybrid antibody with L-chain m/hMBC1Laλ (antibody, V domains shown)
VH: B1 VH
VL: B2 VL with I91Y
notes: as for B2
B9: humanized #23-57-137-1 antibody having L-chain version “j” (antibody, V domains shown)
VH: B1 VH
VL: B3 VL with R45K
notes: Humanized H-chain version a with human Cγ1; L-chain with human λ C-region (Cλ/pUC19); also called hMBC1HcDNA/pCOS1 and hMBC1Ljλ/pCOS1
B10: humanized #23-57-137-1 antibody having L-chain version “o” (antibody, V domains shown)
VH: B1 VH
VL: B3 VL with L47V
notes: Humanized H-chain version a with human Cγ1; L-chain with human λ C-region; also called hMBC1HcDNA/pCOS1 and hMBC1Loλ/pCOS1

What follows are binders tested against T1, human PTHrP (1-34) (human) (assay: ELISA on coated human PTHrP (1-34)).
T1 construct: Synthetic peptide (Peninsula; Peptide Research Institute); Coated on the ELISA plate at 1 µg/ml; used in solid phase RIA for the hybridoma screening; also called parathyroid hormone related peptide (1-34)
Method: An ELISA plate for determining antigen-binding ability was prepared as follows. Each well of a 96-well ELISA plate (Maxisorp, NUNC) was coated with 100 μl of a coating buffer containing 1 μg/ml of human PTHrP (1-34) and then blocked with 200 μl of a dilution buffer. Subsequently, each well was added with each of the serial dilutions of the COS-7 cell culture supernatant in which each of the hybrid antibodies and humanized antibodies was expressed, or added with each of the serial dilutions of each of the hybrid antibodies and humanized antibodies in a purified form. The plate was incubated at room temperature and washed with PBS-Tween 20. Subsequently, each well was added with 100 μl of alkaline phosphatase-conjugated goat anti-human IgG antibody (TAGO). The plate was incubated at room temperature and washed with PBS-Tween 20. Subsequently, each well was added with 1 mg/ml of a substrate solution (“Sigma 104”, p-nitrophenylphosphoric acid, SIGMA). The solution was measured on its absorbance at 405 nm using Microplate Reader (Bio Rad).

Binding result, binds:
B1, B2, B3, B4, B5, B6, B7, B8, B9, B10
